From PMC10937199 (ESMO Open, 2024)

What was measured:
Assay in all cases: Safety
Format in all cases: in vivo, human
[1] = test system: patients with advanced solid tumors; conditions: Part A
[2] = test system: patients with advanced solid tumors; conditions: Part B
[3] = test system: patients with advanced solid tumors; conditions: Part FE
[4] = peposertib 100 mg b.i.d., all grade
[5] = peposertib 100 mg b.i.d., grade ≥3
[6] = peposertib 200 mg b.i.d., all grade
[7] = peposertib 200 mg b.i.d., grade ≥3
[8] = peposertib 250 mg b.i.d., all grade
[9] = peposertib 250 mg b.i.d., grade ≥3
[10] = peposertib 300 mg b.i.d., all grade
[11] = peposertib 300 mg b.i.d., grade ≥3
[12] = peposertib 400 mg b.i.d., all grade
[13] = peposertib 400 mg b.i.d., grade ≥3
[14] = peposertib 100 mg q.d., all grade
[15] = peposertib 100 mg q.d., grade ≥3
[16] = peposertib 150 mg q.d., all grade
[17] = peposertib 150 mg q.d., grade ≥3
[18] = peposertib 200 mg q.d., all grade
[19] = peposertib 200 mg q.d., grade ≥3
[20] = peposertib 250 mg q.d., all grade
[21] = peposertib 250 mg q.d., grade ≥3

“Avelumab: anti-PD-L1 antibody, immune checkpoint inhibitor, 800 mg Q2W intravenous infusion [reference compound]” was tested, and the “Avelumab-related TEAE: diarrhea” value ([1]; all dose levels) was 4 (13.8%), the “Avelumab-related TEAE: fatigue” value ([1]; all dose levels) was 5 (17.2%) and the “Avelumab-related TEAE: rash” value ([1]; all dose levels) was 5 (17.2%). The “Avelumab-related TEAE: vomiting” value ([1]; all dose levels) was 4 (13.8%), the “Serious TEAE, avelumab related” value [1, 4] was 0 n (%) and the “TEAE, avelumab related” value [1, 4] was 2 (50.0) n (%). For the same substance, the “Serious TEAE, avelumab related” value [1, 5] was 0 n (%), the “TEAE, avelumab related” value [1, 5] was 0 n (%) and the Avelumab-related pneumonitis ([1]; peposertib 200 mg b.i.d.) was 9.1%. The “Serious TEAE, avelumab related” value [1, 6] was 3 (27.3) n (%), the “TEAE, avelumab related” value [1, 6] was 8 (72.7) n (%) and the “Serious TEAE, avelumab related” value [1, 7] was 3 (27.3) n (%). The “TEAE, avelumab related” value [1, 7] was 3 (27.3) n (%), the Avelumab-related pneumonitis ([1]; peposertib 250 mg b.i.d.) was 25.0% and the “Serious TEAE, avelumab related” value [1, 8] was 3 (75.0) n (%). The “TEAE, avelumab related” value [1, 8] was 3 (75.0) n (%), the “Serious TEAE, avelumab related” value [1, 9] was 3 (75.0) n (%) and the “TEAE, avelumab related” value [1, 9] was 3 (75.0) n (%). The Avelumab-related pneumonitis ([1]; peposertib 300 mg b.i.d.) was 16.7%, the “Serious TEAE, avelumab related” value [1, 10] was 1 (16.7) n (%) and the “TEAE, avelumab related” value [1, 10] was 3 (50.0) n (%). The “Serious TEAE, avelumab related” value [1, 11] was 1 (16.7) n (%), the “TEAE, avelumab related” value [1, 11] was 2 (33.3) n (%) and the “Serious TEAE, avelumab related” value [1, 12] was 3 (75.0) n (%). The “TEAE, avelumab related” value [1, 12] was 4 (100.0) n (%), the “Serious TEAE, avelumab related” value [1, 13] was 3 (75.0) n (%) and the “TEAE, avelumab related” value [1, 13] was 4 (100.0) n (%). For the same substance, the “Avelumab-related TEAE: IRR” value ([2]; all dose levels) was 8 (42.1%), the “Avelumab-related TEAE: fatigue” value ([2]; all dose levels) was 3 (15.8%) and the “Serious TEAE, avelumab related” value [2, 14] was 1 (33.3) n (%). The “TEAE, avelumab related” value [2, 14] was 3 (100.0) n (%), the “Serious TEAE, avelumab related” value [2, 15] was 1 (33.3) n (%) and the “TEAE, avelumab related” value [2, 15] was 1 (33.3) n (%). The “Serious TEAE, avelumab related” value [2, 16] was 1 (33.3) n (%), the “TEAE, avelumab related” value [2, 16] was 3 (100.0) n (%) and the “Serious TEAE, avelumab related” value [2, 17] was 1 (33.3) n (%). The “TEAE, avelumab related” value [2, 17] was 1 (33.3) n (%), the Avelumab-related pneumonitis ([2]; peposertib 200 mg q.d.) was 25.0% and the “Serious TEAE, avelumab related” value [2, 18] was 0 n (%). For the same substance, the “TEAE, avelumab related” value [2, 18] was 3 (75.0) n (%), the “Serious TEAE, avelumab related” value [2, 19] was 0 n (%) and the “TEAE, avelumab related” value [2, 19] was 0 n (%). For the same substance, the Avelumab-related pneumonitis ([2]; peposertib 250 mg q.d.) was 11.1%, the “Serious TEAE, avelumab related” value [2, 20] was 2 (22.2) n (%) and the “TEAE, avelumab related” value [2, 20] was 7 (77.8) n (%). The “Serious TEAE, avelumab related” value [2, 21] was 2 (22.2) n (%), the “TEAE, avelumab related” value [2, 21] was 3 (33.3) n (%) and the “Avelumab-related TEAE: diarrhea” value ([3]; all dose levels) was 3 (33.3%). The “Avelumab-related TEAE: fatigue” value ([3]; all dose levels) was 3 (33.3%), the “Serious TEAE, avelumab related” value [3, 4] was 1 (25.0) n (%) and the “TEAE, avelumab related” value [3, 4] was 3 (75.0) n (%). For the same substance, the “Serious TEAE, avelumab related” value [3, 5] was 1 (25.0) n (%), the “TEAE, avelumab related” value [3, 5] was 1 (25.0) n (%) and the “Serious TEAE, avelumab related” value [3, 6] was 2 (40.0) n (%). The “TEAE, avelumab related” value [3, 6] was 5 (100.0) n (%), the “Serious TEAE, avelumab related” value [3, 7] was 2 (40.0) n (%) and the “TEAE, avelumab related” value [3, 7] was 3 (60.0) n (%).
